Experimental data reported in US20190112392A1 (Ablynx, published 2019).
Positions count from the first letter of the chain named.

Legend:
[1] = molecular target: T1, soluble recombinant cynomolgus TCR alpha/beta-zipper protein (cynomolgus/rhesus monkey); test: ELISA, 2 µg/mL coated soluble recombinant cynomolgus TCR α/β-zipper protein, OD 450 nm
T1 construct: Made in house in CHOK1SV cells; extracellular domains fused to a zipper protein; also called cynoTCR-zipper protein; not shown: zipper protein (O'Shea et al. 1993)
T1 V domain 1: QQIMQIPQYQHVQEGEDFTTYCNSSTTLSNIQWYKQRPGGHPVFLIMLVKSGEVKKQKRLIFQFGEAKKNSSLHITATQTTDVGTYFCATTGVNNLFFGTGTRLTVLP
T1 V domain 2: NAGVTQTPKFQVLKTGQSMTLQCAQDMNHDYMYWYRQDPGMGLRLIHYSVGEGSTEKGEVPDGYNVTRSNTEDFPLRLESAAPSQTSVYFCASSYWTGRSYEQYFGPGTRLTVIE
Experimental: (§1) Quality of the TCR α/β zipper proteins was assessed in an ELISA binding assay. Maxisorp 96-well ELISA plates (Nunc) were coated with 2 μg/mL soluble recombinant human TCR α/β (2XN9)-zipper protein or soluble recombinant cynomolgus TCR α/β-zipper protein. After an overnight incubation, plates were washed and blocked with PBS+1% casein for 1 h at room temperature. Next, plates were incubated with serial dilutions of either a functional flag tagged Nanobody or the functional mouse IgG anti-non-human primate/Rat TCRα/β antibody, clone R73 (eBioscience 16-5960) for 1 h at room temperature while shaking, washed again and incubated with mouse anti-flag-HRP (Sigma, #A8592) respectively rabbit anti-mouse-HRP (Dako, # P0260). After 1 h, TMB One Solution (Promega #G7431) was added. The reaction was stopped with 2M H₂SO₄ and the dose dependent binding was determined by measuring the OD at 450 nm using the Tecan sunrise 4 (FIG. 2).

[2] = molecular target: T2, human CD20 on cells (human, UniProt P11836 1-297); test: flow cytometry on Raji cells, MCF (Mean PE)
T2 construct: whole, on cells; Tumour antigen on the target cells; also called CD20 positive Ramos cells; Ramos cells
T2 sequence (looked up): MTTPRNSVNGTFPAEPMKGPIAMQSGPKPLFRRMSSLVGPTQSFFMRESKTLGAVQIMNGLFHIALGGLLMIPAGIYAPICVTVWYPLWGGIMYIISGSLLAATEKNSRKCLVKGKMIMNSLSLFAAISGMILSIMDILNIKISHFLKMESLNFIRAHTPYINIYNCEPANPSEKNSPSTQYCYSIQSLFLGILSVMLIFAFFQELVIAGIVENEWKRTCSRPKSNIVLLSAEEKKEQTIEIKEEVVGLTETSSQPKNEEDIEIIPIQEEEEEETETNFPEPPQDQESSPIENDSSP

[3] = molecular target: T2, human CD20 on cells; test: flow cytometry on Ramos cells, MCF (Mean PE)
[4] = molecular target: T1, soluble recombinant cynomolgus TCR …; test: BLI (Octet RED384), immobilized cynomolgus TCR-zipper
[5] = molecular target: T1, soluble recombinant cynomolgus TCR …; test: as above
Experimental: Binding affinities were measured using Bio-Layer Interferometry (BLI) on an Octet RED384 instrument (Pall ForteBio Corp.). Recombinant human soluble TCR(2XN9)-zipper protein was covalently immobilized on amine-reactive sensors (ForteBio) via NHS/EDC coupling chemistry. For kinetic analysis, sensors were first dipped into running buffer (10 mM Hepes, 150 mM NaCl, 0.05% p20, pH7.4 from GE Healthcare Life Sciences) to determine baseline setting. […] Affinity constants (KD) were calculated applying a 1:1 interaction model using the ForteBio Data Analysis software.
Binding affinities of the monovalent anti-TCR Nanobodies were measured using Bio-Layer Interferometry (BLI) on an Octet RED384 instrument (Pall ForteBio Corp.) essentially as described in Example 7.1 using cynomolgus TCR α/β zipper.

[6] = molecular target: T3, human CD3 expressed on HEK293H cells (human, UniProt P04234 22-171; P09693 23-182; P07766 23-207; P20963 22-164); test: flow cytometry, HEK293H human CD3 cells
T3 construct: also called HEK293H human CD3; HEK293H CD3
T3 sequence (P04234 22-171 limits assumed, chain 1 of 4): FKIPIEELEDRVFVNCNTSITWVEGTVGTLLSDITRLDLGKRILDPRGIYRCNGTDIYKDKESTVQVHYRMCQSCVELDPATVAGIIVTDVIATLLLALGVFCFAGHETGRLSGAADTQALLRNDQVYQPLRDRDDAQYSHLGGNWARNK
T3 sequence (P09693 23-182 limits assumed, chain 2 of 4): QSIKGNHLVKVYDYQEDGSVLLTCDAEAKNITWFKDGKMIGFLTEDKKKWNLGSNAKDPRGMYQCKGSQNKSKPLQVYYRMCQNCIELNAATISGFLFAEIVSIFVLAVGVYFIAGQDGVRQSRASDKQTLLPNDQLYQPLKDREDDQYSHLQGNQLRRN
T3 sequence (P07766 23-207 limits assumed, chain 3 of 4): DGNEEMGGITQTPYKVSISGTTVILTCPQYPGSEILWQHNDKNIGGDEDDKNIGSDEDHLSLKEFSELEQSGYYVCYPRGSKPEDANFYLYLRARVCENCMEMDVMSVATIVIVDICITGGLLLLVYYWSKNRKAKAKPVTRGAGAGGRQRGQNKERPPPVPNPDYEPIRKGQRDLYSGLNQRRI
T3 sequence (P20963 22-164 limits assumed, chain 4 of 4): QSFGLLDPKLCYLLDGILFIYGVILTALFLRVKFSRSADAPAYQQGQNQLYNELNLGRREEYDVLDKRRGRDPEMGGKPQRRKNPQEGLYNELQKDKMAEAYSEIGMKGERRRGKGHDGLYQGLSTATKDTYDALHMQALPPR
Experimental: (§2) Binding of purified monovalent anti-TCR Nanobodies to human TCR(2IAN)/CD3 expressed on HEK293H cells was evaluated and compared with the binding to HEK293H cells transfected with human CD3 in flow cytometry, as outlined in Example 5. Dilution series of anti-TCR Nanobodies starting from 1 μM were applied to the cells. The parental HEK293H cell line was included as TCR/CD3 negative cell line.
Nanobodies clearly bound to human TCR(2IAN)/CD3 expressed on HEK293H but not to the HEK293H cells transfected with human CD3 only, nor to the HEK293H parental cell line. The EC50 values obtained from the dose response curve are depicted in Table C-2.

[7] = molecular target: T3, human CD3 expressed on HEK293H cells; test: flow cytometry on HEK293H human CD3 cells, MCF
Experimental: as §2

[8] = molecular target: T4, T cell receptor alpha/beta on purified primary human T cells (human, UniProt P01848 1-140; P01850 1-176); test: flow cytometry, purified primary human T cells
T4 construct: whole, on cells; also called human primary T cells
T4 TCR alpha (looked up): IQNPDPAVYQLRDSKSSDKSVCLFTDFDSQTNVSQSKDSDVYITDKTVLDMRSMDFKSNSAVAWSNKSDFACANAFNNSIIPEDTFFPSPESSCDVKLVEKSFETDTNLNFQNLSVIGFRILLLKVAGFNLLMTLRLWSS
T4 TCR beta (looked up): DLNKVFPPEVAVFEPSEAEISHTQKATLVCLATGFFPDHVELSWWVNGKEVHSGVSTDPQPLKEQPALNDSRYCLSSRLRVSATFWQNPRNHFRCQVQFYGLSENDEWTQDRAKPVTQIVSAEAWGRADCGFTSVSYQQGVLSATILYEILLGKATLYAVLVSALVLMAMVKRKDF
Experimental: Periplasmic extracts were screened for cell expressed TCR/CD3 binding using human TCR/CD3 transfected CHO-K1 or HEK293H cells and the respective CHO-K1 or HEK293H reference cell line in a mixed cell line setup. To this end, a large batch of the reference cell lines were labelled with 8 μM PKH26 and frozen. 5×10⁴ PKH labelled reference cells were mixed with 5×10⁴ target cells and incubated with periplasmic extracts for 30 min at 4′C, and washed 3 times. […] Samples were washed, resuspended in FACS Buffer (D-PBS from Gibco, with 10% FBS from Sigma and 0.05% sodium azide from Merck) and then analysed via a BD FACSArray. […] In this gate, 20,000 cells were counted during acquisition. Based on PKH26-SSC distribution, the PKH labelled parental population and the human TCR/CD3 unlabelled target population was selected. For these 2 populations the mean APC value was calculated.
Binding of purified monovalent anti-TCR Nanobodies to human TCR(2XN9)/CD3 expressed on CHO-K1 cells and to purified primary human T cells was evaluated in flow cytometry as outlined in Example 4.1.

[9] = molecular target: T1, soluble recombinant cynomolgus TCR …; test: ELISA, coated soluble cynomolgus TCR-zipper
Experimental: as §1
Binding of purified monovalent anti-TCR Nanobodies to soluble recombinant cynomolgus TCR c/3 protein was evaluated in ELISA (as described in Example 1.2) using 2 μg/ml directly coated recombinant soluble cynomolgus TCR-α/β zipper protein.

[10] = molecular target: T5, EGFR on cells (UniProt P00533 25-1210, limits assumed); test: flow cytometry on HER14 cells, MeanFI (PE)
T5 construct: whole, on cells; also called HER14 cells (NIH3T3 transfected with EGFR); EGFR on LS174T and LoVo cells

[11] = molecular target: T2, human CD20 on cells; test: cell-based or functional assay
[12] = molecular target: T4, T cell receptor alpha/beta on purified …; test: flow cytometry, purified primary human T cells; purified primary human T cells
[13] = molecular target: T2, human CD20 on cells; test: flow cytometry, Ramos cells
[14] = molecular target: T2, human CD20 on cells; test: cell-based or functional assay; remark: listed apart in the source
[15] = molecular target: T6, T cell receptor alpha/beta on primary cynomolgus T cells (cynomolgus); test: cell-based or functional assay
[16] = molecular target: T6, T cell receptor alpha/beta on primary …; test: cell-based or functional assay; remark: listed apart in the source
[17] = molecular target: T6, T cell receptor alpha/beta on primary …; test: cell-based or functional assay; remark: listed apart in the source
[18] = molecular target: T4, T cell receptor alpha/beta on purified …; test: flow cytometry, purified primary human T cells
[19] = molecular target: T6, T cell receptor alpha/beta on primary …; test: cell-based or functional assay; remark: listed apart in the source

B1: cAblys (VHH)
VHH: DVQLQASGGGSVQAGGSLRLSCAASGYTIGPYCMGWFRQAPGKEREGVAAINMGGGITYYADSVKGRFTISQDNAKNTVYLLMNSLEPEDTAIYYCAADSTIYASYYECGHGLSTGGYGYDSWGQGTQVTVSS
notes: also called cAblys3; irrelevant anti-egg lysozyme Nanobody
binding result [1]: no binding (tested: 1e-6 M)

B2: anti-CD20 Nanobody (VHH)
VHH: EVQLVESGGGLVQPGGSLRLSCTFSGGTFSSYTMGWFRQAPGKEREFVAEVRWGGVTTYSNSLKDRFSISEDSVKNAVYLQMNSLKPEDTAVYYCAAVRQMYMTVVPDYWGQGTLVTVSS
EC50 (read off the curve) [2]: ~20 nM
EC50 (read off the curve) [3]: ~9 nM

B3: T0170055A02 (VHH)
VHH: EVQLVESGGGLVQPGGSLRLSCAASGDVHKINILGWYRQAPAKEREMVAHITIGDATDYADSAKGRFTISRDEAKNMVYLQMNSLKPEDTAVYFCRAYSRIYPYNYWGQGTLVTVSS
notes: Monovalent anti-TCR Nanobody, cluster A; expressed in E. coli as triple Flag, His6-tagged protein; also called T0170PMP055A02; T01700055A02; not shown: C-terminal triple Flag-His6 tag of the E. coli-made monovalent Nanobody
fold lower affinity than for soluble recombinant human TCR α/β zipper [4]: 10 fold
Kd [5]: 210 nM
koff [5]: 0.024 s⁻¹
kon [5]: 110000 M⁻¹ s⁻¹
MCF at 1 µM [6]: 1190 MCF
binding result [7]: no binding (tested: 1e-6 M)
EC50 [8]: 91 nM
EC50 [9]: 160 nM

B4: T0170056G05 (VHH)
VHH: B3 VHH with A23V, I33F, A42G, M47K, T52S, A56Q, A74S, Y98F, N105D
notes: Monovalent anti-TCR Nanobody, cluster A; expressed in E. coli as triple Flag, His6-tagged protein; also called T0170PMP056G05; T01700056G05; not shown: C-terminal triple Flag-His6 tag of the E. coli-made monovalent Nanobody
fold lower affinity than for soluble recombinant human TCR α/β zipper [4]: 10 fold
binding result [10]: no binding (tested: 5e-7 M)
Kd [5]: 150 nM
koff [5]: 0.016 s⁻¹
kon [5]: 110000 M⁻¹ s⁻¹
MCF at 1 µM [6]: 352 MCF
binding result [7]: no binding (tested: 1e-6 M)
EC50 [8]: 91 nM
EC50 [9]: 77 nM

B5: T017000068 (bispecific antibody)
chain: EVQLVESGGGLVQPGGSLRLSCTFSGGTFSSYTMGWFRQAPGKEREFVAEVRWGGVTTYSNSLKDRFSISEDSVKNAVYLQMNSLKPEDTAVYYCAAVRQMYMTVVPDYWGQGTLVTVSSGGGGSGGGGSGGGGSGGGGSGGGGSGGGGSGGGGSEVQLVESGGGLVQPGGSLRLSCITSGETFKINIWGWYRQAPGKQRELVASLTIGGATNYADSVKGRFTISEDSAKNTVYLQMNSLKPEDTAVYFCNAKSRLYPYDYWGQGTLVTVSSGAADYKDHDGDYKDHDIDYKDDDDKGAAHHHHHH
notes: CD20 x TCR bispecific Nanobody construct (cluster B); entry includes the FLAG3-HIS6 tag; also called 20CD019C07-35GS-T0170055C07-FLAG3-HIS6
IC50, xCELLigence human T cell mediated CHO-K1 CD20 killing assay, E:T 30:1, 44 h [11]: 13 nM
EC50 [12]: 6.2 nM
EC50 [13]: 1.8 nM
IC50, flow cytometry based human T cell mediated Ramos killing assay, E:T 10:1 [14]: 1 nM

B6: T017000076 (bispecific antibody)
chain: EVQLVESGGGLVQPGGSLRLSCTFSGGTFSSYTMGWFRQAPGKEREFVAEVRWGGVTTYSNSLKDRFSISEDSVKNAVYLQMNSLKPEDTAVYYCAAVRQMYMTVVPDYWGQGTLVTVSSGGGGSGGGGSGGGGSGGGGSGGGGSGGGGSGGGGSEVQLVESGGGLVQPGGSLRLSCVASGDVHKINFLGWYRQAPGKEREKVAHISIGDQTDYADSAKGRFTISRDESKNMVYLQMNSLKPEDTAVYFCRAFSRIYPYDYWGQGTLVTVSSGAADYKDHDGDYKDHDIDYKDDDDKGAAHHHHHH
notes: CD20 x TCR bispecific Nanobody construct (cluster A); entry includes the FLAG3-HIS6 tag; also called 20CD019C07-35GS-T0170056G05-FLAG3-HIS6
IC50, xCELLigence human T cell mediated CHO-K1 CD20 killing assay, E:T 30:1, 44 h [11]: 0.36 nM
IC50, cynomolgus T cell dependent B cell (Ramos) killing assay [15]: 0.52 nM
EC50 [13]: 1.8 nM
IC50, xCELLigence cynomolgus T cell mediated CHO-K1 human CD20 killing assay, E:T 30:1 [16]: 0.67 nM
IC50, flow cytometry based cynomolgus T cell mediated B cell (Ramos) killing assay [17]: 0.309 nM
EC50 [18]: 130 nM
IC50, flow cytometry based human T cell mediated Ramos killing assay, E:T 10:1 [14]: 0.3 nM
IC50, xCELLigence cynomolgus T cell mediated CHO-K1 human CD20 killing assay [19]: 0.14 nM
